One may read the stoichiometry N as a count of units in the complex or per binding partner.

Several values for one entry are separate records, joined by “and”; a condition that tells them apart may be missing. Equal entries are not always repeated.

Data set [1] concerns the target Aged MuV nucleoprotein (NWT kept at 4 °C for 4 weeks, digested by residual impurities) (mumps virus) (UniProt Q77IS8). Put plainly: cryo-EM structure; filaments of NWT after 4 weeks of digestion at 4 °C; helical reconstruction of three classes (NC_(helix-dense), NC_(helix-hyper), N_(ring-stacked) with C13 symmetry); with enwrapped RNA.
Data set [2] concerns the molecule itself. Put plainly: cryo-EM structure; single particle analysis of freshly purified NWT rings with enwrapped E. coli RNA; ~1 mg/mL; 20 mM Tris-HCl pH 7.4, 150 mM NaCl; micrographs at 0°, 20° and 40° tilt; 2D classification and refinement with C13 or C14 symmetry.

On to “Aged MuV nucleoprotein (NWT kept at 4 °C for 4 weeks, digested by residual impurities) (from UniProt Q77IS8 1-549) (domain or fragment)”, for which the stoichiometry N in data set [1] is 13 protomers.

B1: Mumps virus (MuV) nucleoprotein, full length (1–549), freshly purified (natural protein)
chain: MSSVLKAFERFTIEQELQDRGEEGSIPPETLKSAVKVFVINTPNPTTRYQMLNFCLRIICSQNARASHRVGALITLFSLPSAGMQNHIRLADRSPEAQIERCEIDGFEPGTYRLIPNARANLTANEIAAYALLADDLPPTINNGTPYVHADVEGQPCDEIEQFLDRCYSVLIQAWVMVCKCMTAYDQPAGSADRRFAKYQQQGRLEARYMLQPEAQRLIQTAIRKSLVVRQYLTFELQLARRQGLLSNRYYAMVGDIGKYIENSGLTAFFLTLKYALGTKWSPLSLAAFTGELTKLRSLMMLYRGLGEQARYLALLEAPQIMDFAPGGYPLIFSYAMGVGTVLDVQMRNYTYARPFLNGYYFQIGVETARRQQGTVDNRVADDLGLTPEQRTEVTQLVDRLARGRGAGIPGGPVNPFVPPVQQQQPAAVYEDIPALEESDDDGDEDGGAGFQNGVQLPAVRQGGQTDFRAQPLQDPIQAQLFMPLYPQVSNMPNNQNHQINRIGGLEHQDLLRYNENGDSQQDARGEHVNTFPNNPNQNAQLQVGDWDE
notes: Mumps virus nucleoprotein (N), full-length gene 1–549, synthesized by GenScript, cloned into pET28b; Purified with enwrapped endogenous E. coli RNA; Only residues 1–373 are resolved in the maps; also called NWT; MuV nucleoproteins; source: E. coli, purified (nickel-nitrilotriacetic acid resin, Superose 6 gel filtration), freshly made
On to B1, for which the “stoichiometry N” value in data set [2] was 13 protomers and 14 protomers.

The values above are taken from PMC8253768, “Structural plasticity of mumps virus nucleocapsids with cryo-EM structures” (Communications Biology, 2021).
